B1: PYP-binding protein (PBP) from Rhodobacter capsulatus (natural protein, UniProt D5AR21 1-142, looked up)
chain: MDIVGQLMTDNGRYTFRSDTLNLRVTGDFPEWVMAAAAEMVGIVARREVDSKIDELQALVEFGEASEIEIDSVKYDAKERFEIIPQCVVTMGRTDYRWVAPEGRAKHCATFDGNPVTRVHDMSMTRNDSFLDNENGVDTSGH

Tests used:
[1] = biological target: the molecule itself; test: SEC
[2] = biological target: B1; test: transient absorption
[3] = biological target: B1; test: transient grating

kon [2] [M⁻¹ s⁻¹]	kon [3] [M⁻¹ s⁻¹]	Binder	stoichiometry N [1]
–	–	B1	2
1.2e+06	1.1e+06	Photoactive yellow protein from Rhodobacter capsulatus (Rc-PYP) (natural protein, UniProt O69138 1-124, looked up, chromophore (protonated in pUV, deprotonated in pBL; isomerised on photoexcitation)) MEIIPFGTNDIDNILAREPARAESLPFGAVLLDRMGRIAKYNKAEGLIAGRDPSTVIGRDFFNEIAPCAKGKRFHGEFLKFNRTGQANVMLDYKFNYKGAEVAVKIHLKSQPDGQFCWLFVKRA	–
